# From patent US20250171512A1
# Biological target: human FGFR1c together with human beta-Klotho (KLB), stably expressed on CHO Flp-In cells (human) (UniProt P11362)
# Test: cell-based or functional assay
# human FGFR1c together with human beta-Klotho (KLB), stably expressed on CHO Flp-In cells (human), sequence (P11362 22-822, chain 1 of 2): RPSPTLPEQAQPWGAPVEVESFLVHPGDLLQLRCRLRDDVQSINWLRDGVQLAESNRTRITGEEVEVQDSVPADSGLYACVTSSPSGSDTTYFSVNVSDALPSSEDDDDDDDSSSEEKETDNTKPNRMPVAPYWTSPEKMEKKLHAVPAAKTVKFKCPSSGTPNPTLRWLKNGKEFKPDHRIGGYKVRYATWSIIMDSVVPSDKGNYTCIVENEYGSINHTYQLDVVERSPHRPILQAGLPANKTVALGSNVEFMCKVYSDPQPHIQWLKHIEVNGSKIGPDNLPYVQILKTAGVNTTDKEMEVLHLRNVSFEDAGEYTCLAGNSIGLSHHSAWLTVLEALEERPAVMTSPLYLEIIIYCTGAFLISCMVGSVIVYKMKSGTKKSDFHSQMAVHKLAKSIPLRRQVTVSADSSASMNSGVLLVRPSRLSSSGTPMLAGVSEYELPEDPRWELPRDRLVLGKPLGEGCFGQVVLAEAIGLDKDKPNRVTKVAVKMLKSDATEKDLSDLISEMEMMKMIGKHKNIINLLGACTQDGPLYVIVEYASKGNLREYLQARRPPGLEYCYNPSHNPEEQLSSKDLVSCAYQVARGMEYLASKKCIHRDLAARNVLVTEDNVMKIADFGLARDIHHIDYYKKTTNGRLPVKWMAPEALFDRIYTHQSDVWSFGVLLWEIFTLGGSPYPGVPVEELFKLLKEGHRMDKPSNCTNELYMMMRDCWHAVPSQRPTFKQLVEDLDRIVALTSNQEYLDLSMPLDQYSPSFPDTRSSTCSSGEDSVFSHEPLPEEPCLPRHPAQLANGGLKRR
# human FGFR1c together with human beta-Klotho (KLB), stably expressed on CHO Flp-In cells (human), sequence (Q86Z14 whole entry, chain 2 of 2, further chain): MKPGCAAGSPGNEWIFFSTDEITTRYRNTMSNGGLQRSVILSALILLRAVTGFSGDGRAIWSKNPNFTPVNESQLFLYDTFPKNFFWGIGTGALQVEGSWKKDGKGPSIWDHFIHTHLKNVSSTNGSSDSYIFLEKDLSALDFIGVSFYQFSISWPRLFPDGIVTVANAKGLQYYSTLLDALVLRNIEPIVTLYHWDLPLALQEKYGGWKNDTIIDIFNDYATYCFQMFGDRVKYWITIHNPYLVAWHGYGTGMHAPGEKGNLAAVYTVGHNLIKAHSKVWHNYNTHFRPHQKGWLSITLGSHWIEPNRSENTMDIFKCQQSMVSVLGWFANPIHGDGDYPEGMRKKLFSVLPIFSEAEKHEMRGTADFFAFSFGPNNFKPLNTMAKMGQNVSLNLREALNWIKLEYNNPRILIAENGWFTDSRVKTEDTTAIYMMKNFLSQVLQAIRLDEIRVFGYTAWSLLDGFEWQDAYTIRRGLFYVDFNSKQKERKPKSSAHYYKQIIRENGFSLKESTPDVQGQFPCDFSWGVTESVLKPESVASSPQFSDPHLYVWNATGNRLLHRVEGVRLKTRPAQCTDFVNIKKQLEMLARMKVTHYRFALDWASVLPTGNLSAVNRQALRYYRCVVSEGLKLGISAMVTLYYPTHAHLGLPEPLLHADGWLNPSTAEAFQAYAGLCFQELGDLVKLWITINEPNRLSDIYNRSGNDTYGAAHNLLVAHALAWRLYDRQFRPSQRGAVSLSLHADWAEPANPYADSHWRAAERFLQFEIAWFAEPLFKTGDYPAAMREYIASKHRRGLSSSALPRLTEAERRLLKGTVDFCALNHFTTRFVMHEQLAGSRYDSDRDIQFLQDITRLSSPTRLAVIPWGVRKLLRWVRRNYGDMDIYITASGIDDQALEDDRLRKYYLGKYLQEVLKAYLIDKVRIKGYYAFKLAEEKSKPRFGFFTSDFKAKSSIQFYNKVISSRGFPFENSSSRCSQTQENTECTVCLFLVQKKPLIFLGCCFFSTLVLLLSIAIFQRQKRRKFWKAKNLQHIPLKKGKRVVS
# FGF21 S206 deleted (SEQ ID NO: 67), sequence (Q9NSA1 other isoform, or with tags, fused parts or gaps): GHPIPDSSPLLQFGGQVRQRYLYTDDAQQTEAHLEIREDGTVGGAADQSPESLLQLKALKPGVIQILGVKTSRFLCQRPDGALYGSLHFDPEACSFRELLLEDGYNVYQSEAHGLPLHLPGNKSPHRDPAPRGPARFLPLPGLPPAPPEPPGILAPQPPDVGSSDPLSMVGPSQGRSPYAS
# FGF21 Q184 deleted (SEQ ID NO: 60), sequence (Q9NSA1 other isoform, or with tags, fused parts or gaps): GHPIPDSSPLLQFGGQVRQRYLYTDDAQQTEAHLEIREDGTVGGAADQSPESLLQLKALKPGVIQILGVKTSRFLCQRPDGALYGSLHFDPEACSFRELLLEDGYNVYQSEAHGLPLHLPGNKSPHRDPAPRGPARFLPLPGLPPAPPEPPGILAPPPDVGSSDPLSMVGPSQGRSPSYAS
# FGF21 S204 deleted (SEQ ID NO: 65), sequence (Q9NSA1 other isoform, or with tags, fused parts or gaps): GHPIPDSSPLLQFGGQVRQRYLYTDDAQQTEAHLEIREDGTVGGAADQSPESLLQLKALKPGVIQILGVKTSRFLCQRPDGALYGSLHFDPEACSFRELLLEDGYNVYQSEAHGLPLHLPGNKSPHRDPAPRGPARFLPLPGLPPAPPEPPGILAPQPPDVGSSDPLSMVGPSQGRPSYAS
# FGF21 Y207 deleted (SEQ ID NO: 68), sequence (Q9NSA1 other isoform, or with tags, fused parts or gaps): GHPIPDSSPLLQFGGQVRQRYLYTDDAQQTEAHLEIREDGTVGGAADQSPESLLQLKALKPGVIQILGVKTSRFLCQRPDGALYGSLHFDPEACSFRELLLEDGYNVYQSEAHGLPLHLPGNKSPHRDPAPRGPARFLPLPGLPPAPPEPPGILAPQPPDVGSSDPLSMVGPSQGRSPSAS
# FGF21 R203 deleted (SEQ ID NO: 64), sequence (Q9NSA1 other isoform, or with tags, fused parts or gaps): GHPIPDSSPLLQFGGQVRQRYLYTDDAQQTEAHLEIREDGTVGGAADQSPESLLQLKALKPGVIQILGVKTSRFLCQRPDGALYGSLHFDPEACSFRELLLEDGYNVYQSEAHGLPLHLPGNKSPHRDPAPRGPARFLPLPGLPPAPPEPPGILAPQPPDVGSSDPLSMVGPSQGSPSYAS
# FGF21 P186 deleted (SEQ ID NO: 58), sequence (Q9NSA1 other isoform, or with tags, fused parts or gaps): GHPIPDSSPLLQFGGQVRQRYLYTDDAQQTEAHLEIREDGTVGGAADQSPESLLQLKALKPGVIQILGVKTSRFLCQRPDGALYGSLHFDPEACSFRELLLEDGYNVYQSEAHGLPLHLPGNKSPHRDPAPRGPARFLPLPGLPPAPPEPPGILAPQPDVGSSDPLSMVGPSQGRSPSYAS
# FGF21 P185-P186 deleted (SEQ ID NO: 59), sequence (Q9NSA1 other isoform, or with tags, fused parts or gaps): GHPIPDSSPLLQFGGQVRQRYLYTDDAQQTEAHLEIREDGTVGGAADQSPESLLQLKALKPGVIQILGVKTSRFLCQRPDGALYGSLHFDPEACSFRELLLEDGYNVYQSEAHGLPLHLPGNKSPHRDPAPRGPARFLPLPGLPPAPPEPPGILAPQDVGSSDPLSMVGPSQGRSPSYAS
# FGF21, human (SEQ ID NO: 2), with N-terminal tag, sequence (Q9NSA1 29-209 L174P): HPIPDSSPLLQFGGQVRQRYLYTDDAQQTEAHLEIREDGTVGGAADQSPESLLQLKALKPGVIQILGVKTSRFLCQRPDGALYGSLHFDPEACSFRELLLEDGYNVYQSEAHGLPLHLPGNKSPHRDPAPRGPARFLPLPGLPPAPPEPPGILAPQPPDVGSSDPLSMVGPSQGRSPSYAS
# FGF21 GGGGS inserted between G198 and P199 (SEQ ID NO: 15), sequence (Q9NSA1 other isoform, or with tags, fused parts or gaps): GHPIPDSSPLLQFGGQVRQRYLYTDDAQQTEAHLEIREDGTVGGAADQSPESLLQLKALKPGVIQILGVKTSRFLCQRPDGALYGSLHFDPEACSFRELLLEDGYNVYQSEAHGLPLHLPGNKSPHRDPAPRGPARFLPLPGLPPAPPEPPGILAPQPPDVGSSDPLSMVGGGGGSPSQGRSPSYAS
# FGF21 S191 deleted (SEQ ID NO: 53), sequence (Q9NSA1 other isoform, or with tags, fused parts or gaps): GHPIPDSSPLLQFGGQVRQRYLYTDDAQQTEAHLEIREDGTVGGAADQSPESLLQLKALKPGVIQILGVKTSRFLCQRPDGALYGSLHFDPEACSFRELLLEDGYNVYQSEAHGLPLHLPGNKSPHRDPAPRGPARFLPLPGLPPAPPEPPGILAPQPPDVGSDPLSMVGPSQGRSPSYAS
# FGF21 M196 deleted, S201 deleted (SEQ ID NO: 70), sequence (Q9NSA1 other isoform, or with tags, fused parts or gaps): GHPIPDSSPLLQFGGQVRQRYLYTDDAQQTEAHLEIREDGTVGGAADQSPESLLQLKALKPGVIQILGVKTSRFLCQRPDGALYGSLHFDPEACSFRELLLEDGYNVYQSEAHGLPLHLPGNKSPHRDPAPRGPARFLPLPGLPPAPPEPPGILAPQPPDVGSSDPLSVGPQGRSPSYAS
# FGF21 G202 deleted (SEQ ID NO: 63), sequence (Q9NSA1 other isoform, or with tags, fused parts or gaps): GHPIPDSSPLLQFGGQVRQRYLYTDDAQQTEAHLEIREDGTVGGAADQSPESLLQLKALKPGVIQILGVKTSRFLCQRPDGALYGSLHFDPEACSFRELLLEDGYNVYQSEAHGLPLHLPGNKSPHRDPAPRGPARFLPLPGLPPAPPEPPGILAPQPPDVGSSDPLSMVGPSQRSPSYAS
# FGF21 P199 deleted (SEQ ID NO: 11), sequence (Q9NSA1 other isoform, or with tags, fused parts or gaps): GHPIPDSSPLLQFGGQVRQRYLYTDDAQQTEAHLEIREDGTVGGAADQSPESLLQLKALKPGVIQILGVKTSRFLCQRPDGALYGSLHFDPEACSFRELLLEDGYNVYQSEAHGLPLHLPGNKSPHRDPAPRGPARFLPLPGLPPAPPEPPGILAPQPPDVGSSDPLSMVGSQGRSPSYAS
# FGF21 V197 deleted (SEQ ID NO: 34), sequence (Q9NSA1 other isoform, or with tags, fused parts or gaps): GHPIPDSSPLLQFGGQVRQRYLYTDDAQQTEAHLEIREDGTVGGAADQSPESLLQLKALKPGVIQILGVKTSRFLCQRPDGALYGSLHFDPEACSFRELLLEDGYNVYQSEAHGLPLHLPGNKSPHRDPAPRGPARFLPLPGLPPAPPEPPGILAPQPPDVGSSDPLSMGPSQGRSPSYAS
# FGF21 Q201 deleted (SEQ ID NO: 62), sequence (Q9NSA1 other isoform, or with tags, fused parts or gaps): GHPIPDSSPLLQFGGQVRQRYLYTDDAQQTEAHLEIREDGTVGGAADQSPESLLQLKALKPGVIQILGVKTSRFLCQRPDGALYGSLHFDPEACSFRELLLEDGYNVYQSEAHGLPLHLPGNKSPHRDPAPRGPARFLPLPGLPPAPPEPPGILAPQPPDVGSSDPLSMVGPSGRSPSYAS
# FGF21 P205 deleted (SEQ ID NO: 66), sequence (Q9NSA1 other isoform, or with tags, fused parts or gaps): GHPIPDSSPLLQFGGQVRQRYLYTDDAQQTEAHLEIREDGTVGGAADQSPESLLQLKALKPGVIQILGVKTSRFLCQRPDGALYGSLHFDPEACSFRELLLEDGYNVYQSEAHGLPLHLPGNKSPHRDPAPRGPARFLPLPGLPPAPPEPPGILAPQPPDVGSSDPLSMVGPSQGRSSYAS
row,pERK ICW EC50 [nmol/L],Substance
1,1.15,FGF21 G198R (SEQ ID NO: 18) (from UniProt Q9NSA1 29-209) (ligand)
2,0.68,FGF21 G198Y (SEQ ID NO: 20) (from UniProt Q9NSA1 29-209) (ligand)
3,8.18,FGF21 G202 deleted (SEQ ID NO: 63) (from UniProt Q9NSA1 29-209) (ligand)
4,3.07,FGF21 GGGGS inserted between G198 and P199 (SEQ ID NO: 15) (from UniProt Q9NSA1 29-209) (ligand)
5,67.1,"FGF21 H60C, S79C (SEQ ID NO: 75) (from UniProt Q9NSA1 29-209) (ligand)"
6,2.27,"FGF21 H140C, L142C (SEQ ID NO: 82) (from UniProt Q9NSA1 29-209) (ligand)"
7,6.51,"FGF21 H145C, P161C (SEQ ID NO: 120) (from UniProt Q9NSA1 29-209) (ligand)"
8,5.05,"FGF21 I63C, G112C (SEQ ID NO: 79) (from UniProt Q9NSA1 29-209) (ligand)"
9,87.6,"FGF21 I63C, T98C (SEQ ID NO: 111) (from UniProt Q9NSA1 29-209) (ligand)"
10,17.9,"FGF21 L80C, V96C (SEQ ID NO: 119) (from UniProt Q9NSA1 29-209) (ligand)"
11,46.5,"FGF21 L81C, G95C (SEQ ID NO: 121) (from UniProt Q9NSA1 29-209) (ligand)"
12,8.28,"FGF21 L146C, A162C (SEQ ID NO: 35) (from UniProt Q9NSA1 29-209) (ligand)"
13,165,"FGF21 M196 deleted, S201 deleted (SEQ ID NO: 70) (from UniProt Q9NSA1 29-209) (ligand)"
14,26.7,"FGF21 M196V, V197M (SEQ ID NO: 13) (from UniProt Q9NSA1 29-209) (ligand)"
15,8.76,"FGF21 P77C, K97C (SEQ ID NO: 117) (from UniProt Q9NSA1 29-209) (ligand)"
16,17.6,"FGF21 P143C, A162C (SEQ ID NO: 116) (from UniProt Q9NSA1 29-209) (ligand)"
17,21.1,FGF21 P185-P186 deleted (SEQ ID NO: 59) (from UniProt Q9NSA1 29-209) (ligand)
18,0.87,FGF21 P186 deleted (SEQ ID NO: 58) (from UniProt Q9NSA1 29-209) (ligand)
19,2.31,FGF21 P199 deleted (SEQ ID NO: 11) (from UniProt Q9NSA1 29-209) (ligand)
20,1.65,FGF21 P199G (SEQ ID NO: 21) (from UniProt Q9NSA1 29-209) (ligand)
21,1.76,"FGF21 P199Q, Q201P (SEQ ID NO: 10) (from UniProt Q9NSA1 29-209) (ligand)"

row,pERK ICW EC50 [nmol/L],Substance
1,0.95,FGF21 P199R (SEQ ID NO: 22) (from UniProt Q9NSA1 29-209) (ligand)
2,1.72,"FGF21 P199S, S200P (SEQ ID NO: 9) (from UniProt Q9NSA1 29-209) (ligand)"
3,1.66,FGF21 P199T (SEQ ID NO: 23) (from UniProt Q9NSA1 29-209) (ligand)
4,27.4,FGF21 P205 deleted (SEQ ID NO: 66) (from UniProt Q9NSA1 29-209) (ligand)
5,0.48,"FGF21 Q55C, G148C (SEQ ID NO: 93) (from UniProt Q9NSA1 29-209) (ligand)"
6,7.27,"FGF21 Q55C, G148C, N149-R159 deleted and replaced by GGSGGS (SEQ ID NO: 95) (from UniProt Q9NSA1 29-209) (ligand)"
7,8.19,"FGF21 Q55C, G148C, N149-R159 deleted and replaced by GSGS (SEQ ID NO: 94) (from UniProt Q9NSA1 29-209) (ligand)"
8,0.58,"FGF21 Q55C, N149C, G198Y (SEQ ID NO: 47) (from UniProt Q9NSA1 29-209) (ligand)"
9,1.7,"FGF21 Q55C, N149C, P199 deleted (SEQ ID NO: 46) (from UniProt Q9NSA1 29-209) (ligand)"
10,3.6,"FGF21 Q55C, P147C, G198Y (SEQ ID NO: 45) (from UniProt Q9NSA1 29-209) (ligand)"
11,10,"FGF21 Q55C, P147C, P199 deleted (SEQ ID NO: 44) (from UniProt Q9NSA1 29-209) (ligand)"
12,163,"FGF21 Q55G, Q56C, L146C (SEQ ID NO: 96) (from UniProt Q9NSA1 29-209) (ligand)"
13,155,"FGF21 Q55G, Q56C, L146C, P147-R159 deleted and replaced by GGSGGS (SEQ ID NO: 98) (from UniProt Q9NSA1 29-209) (ligand)"
14,114,"FGF21 Q55G, Q56C, L146C, P147-R159 deleted and replaced by GSGS (SEQ ID NO: 97) (from UniProt Q9NSA1 29-209) (ligand)"
15,5.57,"FGF21 Q82C, L94C (SEQ ID NO: 122) (from UniProt Q9NSA1 29-209) (ligand)"
16,21.9,"FGF21 Q104C, H140C (SEQ ID NO: 108) (from UniProt Q9NSA1 29-209) (ligand)"
17,1.83,"FGF21 Q104C, S137C (SEQ ID NO: 107) (from UniProt Q9NSA1 29-209) (ligand)"
18,2.26,FGF21 Q184 deleted (SEQ ID NO: 60) (from UniProt Q9NSA1 29-209) (ligand)
19,1.91,FGF21 Q201 deleted (SEQ ID NO: 62) (from UniProt Q9NSA1 29-209) (ligand)
20,14.5,"FGF21 R47C, P174C (SEQ ID NO: 90) (from UniProt Q9NSA1 29-209) (ligand)"
21,48.2,"FGF21 R100C, L114C (SEQ ID NO: 103) (from UniProt Q9NSA1 29-209) (ligand)"

row,pERK ICW EC50 [nmol/L],Substance
1,22.6,"FGF21 R124C, Q136C (SEQ ID NO: 115) (from UniProt Q9NSA1 29-209) (ligand)"
2,6.69,FGF21 R203 deleted (SEQ ID NO: 64) (from UniProt Q9NSA1 29-209) (ligand)
3,1.44,"FGF21 S76C, S79C (SEQ ID NO: 85) (from UniProt Q9NSA1 29-209) (ligand)"
4,0.15,"FGF21 S76C, S79C, G198Y (SEQ ID NO: 39) (from UniProt Q9NSA1 29-209) (ligand)"
5,1.25,"FGF21 S76C, S79C, P199 deleted (SEQ ID NO: 38) (from UniProt Q9NSA1 29-209) (ligand)"
6,3.87,"FGF21 S137C, H140C (SEQ ID NO: 84) (from UniProt Q9NSA1 29-209) (ligand)"
7,97.3,FGF21 S191 deleted (SEQ ID NO: 53) (from UniProt Q9NSA1 29-209) (ligand)
8,10.8,"FGF21 S195C, S200C (SEQ ID NO: 8) (from UniProt Q9NSA1 29-209) (ligand)"
9,1.17,FGF21 S200 deleted (SEQ ID NO: 61) (from UniProt Q9NSA1 29-209) (ligand)
10,1.62,"FGF21 S200Q, Q201S (SEQ ID NO: 25) (from UniProt Q9NSA1 29-209) (ligand)"
11,25.7,FGF21 S204 deleted (SEQ ID NO: 65) (from UniProt Q9NSA1 29-209) (ligand)
12,31.9,FGF21 S206 deleted (SEQ ID NO: 67) (from UniProt Q9NSA1 29-205) (ligand)
13,11.7,"FGF21 V69C, L110C (SEQ ID NO: 113) (from UniProt Q9NSA1 29-209) (ligand)"
14,68.8,FGF21 V197 deleted (SEQ ID NO: 34) (from UniProt Q9NSA1 29-209) (ligand)
15,98.7,"FGF21 V197 deleted, S201 deleted (SEQ ID NO: 69) (from UniProt Q9NSA1 29-209) (ligand)"
16,78.1,FGF21 V197-R203 deleted and replaced by GLNSMV (SEQ ID NO: 28) (from UniProt Q9NSA1 29-209) (ligand)
17,85.8,"FGF21 V197D, G198V, P199D, S200H (SEQ ID NO: 26) (from UniProt Q9NSA1 29-209) (ligand)"
18,31.4,FGF21 V197E (SEQ ID NO: 14) (from UniProt Q9NSA1 29-209) (ligand)
19,7.14,FGF21 Y207 deleted (SEQ ID NO: 68) (from UniProt Q9NSA1 29-206) (ligand)
20,1.03,"FGF21, human (SEQ ID NO: 2), with N-terminal tag (from UniProt Q9NSA1 29-209) (ligand)"
